# Patent publication US9422369 (QUEEN MARY AND WESTFIELD COLLEGE, dated 2016)
# Ends that are not written are not given here.
# T1: peptide antigen EDGIKRIQDDC-biotin (from AT1-receptor N-terminal region) (rat (sequence also found in human and …))
# T1 construct: Coated on Maxisorp plates for the ELISA; also called antigenic peptide; biotinylated peptide antigen
# T1 peptide: EDGIKRIQDDC-biotin
# Target: T1, peptide antigen EDGIKRIQDDC-biotin …
# Assay: ELISA, coated EDGIKRIQDDC-biotin, anti-His-tag HRP detection; reference is the murine scFv
# Method: IgM for comparative binding studies was purified as previously described for cellular invasion studies. The extinction coefficient used for IgM was 1.18 (Johnstone A, Thorpe R. *Immunochemistry in practice*. 2nd ed. Oxford: Blackwell Scientific Publications (1987)). Testing of Antigen Binding Using ELISA Enzyme-linked immunosorbant assays (ELISAs) were carried out in Maxisorp 96-well plates coated with Peptide antigen […]-biotin (SEQ ID NO: 14) (2-8 ug/ml in carbonate buffer pH 9.6) overnight at 4 or 37 C. The coated wells were blocked using 1% alkaline soluble casein (Blocking buffer) for 1 h at RT, then washed three times with PBS containing 0.1% v/v Tween 20. ScFv samples diluted between 1:1 to 1:100 in PBS-T were added and incubated for 1 h at RT before washing as before. A secondary HRP-conjugated anti-His-Tag antibody was then added (diluted 1:1000 in blocking buffer) for 1 h at RT. Wells were then washed three times in PBS-T then twice with PBS (without Tween 20). 100 µl of TMB substrate solution was added and colour was allowed to develop for 30 min, at which time 100 µl of 2M sulphuric acid was added to stop the reaction. Absorbance at 450 nm was read on a plate reading spectrophotometer. Protein concentrations were determined using an Eppendorf Biophotometer reading at 280 nm and using an extinction coefficient for the scFv of 1.7 as above.
binder,measurement,value
"humanised scFv variant HuCY, His-tagged (scFv, V domains shown, Resurfaced variant of 12D, changed only in the framework regions; not shown: C-terminal His-tag from the expression vector) VH: QVQLVQSGPELVKPGASVKISCKASGYSFTGYNMNWVKQAPGKSLEWIGNIDPYYGGTTYNQKFKGKATLTVDKSSSTAYMQLKSLRSEDTAVYYCAREVDYWGQGTTVTVSS",fold binding in ELISA against the murine scFv,5 fold
